Target: human lysyl-tRNA synthetase anticodon-binding domain (hLysRS ACB) (Homo sapiens, UniProt Q15046 91-216)
Assay: fluorescence anisotropy

Chain of human lysyl-tRNA synthetase anticodon-binding domain (hLysRS ACB) (Q15046 91-216): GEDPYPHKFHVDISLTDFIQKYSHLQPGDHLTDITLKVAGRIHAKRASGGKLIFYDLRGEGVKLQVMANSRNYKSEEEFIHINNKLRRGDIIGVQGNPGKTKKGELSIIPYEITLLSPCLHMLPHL

CCCCCCCCC (ssRNA) [C9]
binding signal: ~100 fold lower affinity than U9

Source: publication PMC5113203
